Data: article PMC5912465

Target: T1, human CCL8 (residues Gln-24 to Pro-99), expressed in E. coli (human), P80075
T1 chain: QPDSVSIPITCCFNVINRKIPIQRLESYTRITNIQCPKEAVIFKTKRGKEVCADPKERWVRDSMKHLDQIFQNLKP
Experiment: native MS; CCL8 alone in 200 mM ammonium acetate pH 6.5; modified Q Exactive, capillary voltage 1.2 kV, source temperature 100 °C
Settings: remark: other sources report otherwise

- stoichiometry N: 2
B1: human CCL8 (residues Gln-24 to Pro-99), expressed in E. coli, P80075 24-99 (ligand)
chain: T1 chain
